Data from patent US20240254223A1 (NOVIMMUNE, published 2024).
Blank lines part the entries; values can stand above or below the binder they belong to.

Experiments:
[1] = target: T1, CD47 at the surface of Peak cells (human, UniProt Q08722 19-323); assay: flow cytometry, Peak cells
T1 construct: whole, on cells; also called cell surface CD47
Procedure: (§1) Binding activity of antibody-cytokine/receptor fusions before and after cleavage was also evaluated by flow cytometry. Peak cells derived from HEK 293 which are human cells expressing CD47 were used to evaluate masking efficacy and binding recovery to CD47 by flow cytometry. Peak cells were diluted in cold FACS buffer (PBS, 2% BSA) to 1.2×10⁶ cells/mL. 3×10⁵ cells/well were added in a 96 well V-bottom plate. The plate was then centrifugated for 5 min at 1300 rpm, 4° C. Supernatants were removed and cells were washed twice using FACS buffer. A serial dilution of antibody-cytokine/receptor fusions previously digested with MMP-9 or not digested as described above was prepared in FACS buffer. An irrelevant antibody was included. Then, 150 μL of each diluted antibody were added in corresponding well and incubated for 30 min at 4° C. Cells were washed twice with FACS buffer and 100 μL of a mouse anti human Fc-PE conjugated secondary antibody were added and the plate was incubated for 20 min at 4° C. Cells were then washed twice with FACS buffer. Finally, 150 μL of SYTOX blue dead cell stain (ThermoFisher) diluted to 1/5000 in FACS buffer were added before detection by flow cytometry with Cytoflex (Beckman Coulter). Acquisition was performed with 10000 events for each well. Data were analyzed by FlowJo software.

His-tagged human CD47 [2] = target: T2, His-tagged human CD47 (human, UniProt Q08722 19-139, limits assumed); assay: BLI, His-CD47 on HIS1K sensor, antibody 15 µg/mL
T2 construct: loaded on HIS1K biosensors at 2.5 µg/mL; also called target antigen; not shown: His tag
Procedure: (§2) The capacity of the masking domains to inhibit binding activity of the antibody was evaluated by Bio-Layer Interferometry (BLI). […] Binding experiments were performed to evaluate the masking efficiency and the binding recovery after cleavage of the masking domains. BLI was performed on an Octet RED96 system (Sartorius). His-tagged human CD47 was diluted at 2.5 μg/mL in Kinetic Buffer (KB) (Sartorius) and loaded on HIS1K biosensors (anti-His tag antibody biosensors, Sartorius) for 300 seconds. Loaded biosensors were dipped into antibodies diluted at 15 μg/mL in KB for 300 seconds to monitor association. Then, biosensors were transferred in KB for dissociation for 60 seconds. Binding profiles were then analyzed with ForteBio Data Analysis software.

[3] = target: T3, high affinity trimeric IL-2R (IL-2Rα, IL-2Rβ and IL-2Rγ) on HEK-Blue IL-2 cells (UniProt P01589 22-272; P14784 27-551; P31785 23-369); assay: cell-based or functional assay
T3 sequence (looked up) 1: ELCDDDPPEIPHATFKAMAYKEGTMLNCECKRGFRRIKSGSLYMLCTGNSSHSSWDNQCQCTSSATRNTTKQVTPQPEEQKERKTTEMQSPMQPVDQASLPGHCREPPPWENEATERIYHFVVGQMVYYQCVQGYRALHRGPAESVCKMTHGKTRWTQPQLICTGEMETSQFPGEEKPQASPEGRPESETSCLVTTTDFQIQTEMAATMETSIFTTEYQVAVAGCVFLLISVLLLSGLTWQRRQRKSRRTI
T3 sequence (looked up) 2: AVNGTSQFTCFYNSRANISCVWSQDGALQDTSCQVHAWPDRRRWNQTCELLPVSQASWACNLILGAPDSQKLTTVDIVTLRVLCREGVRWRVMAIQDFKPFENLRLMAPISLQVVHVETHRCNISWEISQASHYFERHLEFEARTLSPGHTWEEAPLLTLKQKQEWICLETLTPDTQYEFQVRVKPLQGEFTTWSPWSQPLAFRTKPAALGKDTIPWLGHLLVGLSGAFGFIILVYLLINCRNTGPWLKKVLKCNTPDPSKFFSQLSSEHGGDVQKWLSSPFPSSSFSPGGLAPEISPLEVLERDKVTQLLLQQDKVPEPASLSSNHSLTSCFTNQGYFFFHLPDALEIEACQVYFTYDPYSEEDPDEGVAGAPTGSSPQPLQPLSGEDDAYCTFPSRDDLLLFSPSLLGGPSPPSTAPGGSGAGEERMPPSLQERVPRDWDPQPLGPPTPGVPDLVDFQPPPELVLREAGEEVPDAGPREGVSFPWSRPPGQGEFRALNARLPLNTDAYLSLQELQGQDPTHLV
T3 sequence (looked up) 3: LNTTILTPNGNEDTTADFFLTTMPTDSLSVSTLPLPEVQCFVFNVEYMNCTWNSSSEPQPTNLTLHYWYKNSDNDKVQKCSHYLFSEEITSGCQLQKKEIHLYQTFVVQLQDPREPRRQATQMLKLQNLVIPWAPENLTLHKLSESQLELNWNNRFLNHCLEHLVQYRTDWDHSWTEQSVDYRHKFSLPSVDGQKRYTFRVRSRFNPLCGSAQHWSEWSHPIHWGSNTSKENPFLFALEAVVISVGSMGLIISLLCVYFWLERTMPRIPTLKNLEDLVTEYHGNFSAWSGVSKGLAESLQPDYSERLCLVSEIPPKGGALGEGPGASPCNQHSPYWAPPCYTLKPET

[4] = target: T4, low-moderate affinity dimeric IL-2R (IL-2Rβ and IL-2Rγ) on HEK-Blue CD122/CD132 cells (UniProt P14784 27-551; P31785 23-369, limits assumed); assay: cell-based or functional assay
T4 sequence (looked up) 1: T3 sequence (looked up) 2
T4 sequence (looked up) 2: T3 sequence (looked up) 3

[5] = target: T1, CD47 at the surface of Peak cells; assay: flow cytometry, Peak cells, after MMP-9 treatment
Procedure: as §1

His-tagged human CD47 [6] = target: T2, His-tagged human CD47; assay: BLI, His-CD47 on HIS1K sensor, after MMP-9 treatment
Procedure: as §2

B2: Construct No 800 after cleavage by MMP-9 (antibody)
light: DIQMTQSPSSLSASVGDRVTITCNVDQVIANWLNWYQQKPGKAPKLLIYAASSLQSGVPSRFSGSGSGTDFTLTISSLQPEDFATYYCQQMHPRAPKQFGQGTKVEIKRTVAAPSVFIFPPSDEQLKSGTASVVCLLNNFYPREAKVQWKVDNALQSGNSQESVTEQDSKDSTYSLSSTLTLSKADYEKHKVYACEVTHQGLSSPVTKSFNRGEC
heavy: not shown
notes: MMP-9 digest of m31; the sample also holds the released IL-2Rα, IL-2 Q126T and IL-2Rβ; also called n800 after cleavage; not shown: remnant of CM1 and linker after MMP-9 cleavage
EC50 after cleavage IL-2, HEK Blue IL-2 αβγ reporter assay [3]: 480 pM
EC50 after cleavage IL-2, HEK Blue IL-2 βγ reporter assay [4]: 1140 pM
EC50 [5]: 1500 pM
Binding after cleavage (BLI) (His-tagged human CD47 [6]): 1.5 nm

B3: Construct No 676 after cleavage by MMP-9 (antibody)
light: B2 light
heavy: not shown
notes: MMP-9 digest of m23; the sample also holds the released IL-2Rα-(GGGGS)2-IL-2 fusion (no cleavable linker between the two) and IL-2Rβ; also called n676 after cleavage; not shown: remnant of CM1 and linker after MMP-9 cleavage
EC50 after cleavage IL-2, HEK Blue IL-2 αβγ reporter assay [3]: 40 pM
EC50 after cleavage IL-2, HEK Blue IL-2 βγ reporter assay [4]: 30 pM
EC50 [5]: 1000 pM
Binding after cleavage (BLI) (His-tagged human CD47 [6]): 1.5 nm

B5: Construct No 780 after cleavage by MMP-9 (antibody)
light: B2 light
heavy: not shown
notes: MMP-9 digest of m29; the sample also holds the released IL-2Rα, IL-2 F42A and IL-2Rβ; also called n780 after cleavage; not shown: remnant of CM1 and linker after MMP-9 cleavage
EC50 after cleavage IL-2, HEK Blue IL-2 αβγ reporter assay [3]: 20 pM
EC50 after cleavage IL-2, HEK Blue IL-2 βγ reporter assay [4]: 10 pM
EC50 [5]: 1000 pM
Binding after cleavage (BLI) (His-tagged human CD47 [6]): 1.7 nm

B6: Construct No 41 after cleavage by MMP-9 (antibody)
light: B2 light
heavy: not shown
notes: MMP-9 digest of m8; the sample also holds the released IL-2 and IL-2Rα; also called n41 after cleavage; not shown: remnant of CM1 and linker after MMP-9 cleavage
EC50 after cleavage IL-2, HEK Blue IL-2 αβγ reporter assay [3]: 20 pM
EC50 after cleavage IL-2, HEK Blue IL-2 βγ reporter assay [4]: 10 pM
EC50 [5]: 200 pM
Binding after cleavage (BLI) (His-tagged human CD47 [6]): 1.7 nm

B8: Construct No 790 after cleavage by MMP-9 (antibody)
light: B2 light
heavy: not shown
notes: MMP-9 digest of m30; the sample also holds the released IL-2Rα, IL-2 D20T and IL-2Rβ; also called n790 after cleavage; not shown: remnant of CM1 and linker after MMP-9 cleavage
EC50 after cleavage IL-2, HEK Blue IL-2 αβγ reporter assay [3]: 40 pM
EC50 after cleavage IL-2, HEK Blue IL-2 βγ reporter assay [4]: 70 pM
EC50 [5]: 1600 pM
Binding after cleavage (BLI) (His-tagged human CD47 [6]): 1.4 nm

Second part, the binder after the results:

EC50 [1]: 62 pM
Binding before cleavage (BLI) (His-tagged human CD47 [2]): 1.8 nm
B1: pNOVI V2K K91 (antibody, human IgG1, kappa)
light: B2 light
heavy: not shown
notes: also called n46; construct No 46

EC50 after cleavage IL-2, HEK Blue IL-2 αβγ reporter assay [3]: 10 pM
EC50 after cleavage IL-2, HEK Blue IL-2 βγ reporter assay [4]: 30 pM
EC50 [5]: 1300 pM
Binding after cleavage (BLI) (His-tagged human CD47 [6]): 1.3 nm
B4: Construct No 870 after cleavage by MMP-9 (antibody)
light: B2 light
heavy: not shown
notes: MMP-9 digest of m33; the sample also holds the released IL-2Rγ, IL-2 and IL-2Rα; also called n870 after cleavage; not shown: remnant of CM1 and linker after MMP-9 cleavage

Binding before cleavage (BLI) (His-tagged human CD47 [2]): 1.5 nm
B7: pNOVI V2K K91_IL15_CM1_VHCH (antibody)
light: B2 light
heavy: not shown
notes: masked K91 fusion, uncleaved; 49% aggregates; also called n111; construct No 111
